Patent US20240368288A1 (HEMOGENYX PHARMACEUTICALS, published 2024)
“And” between values parts separate entries of the source, which are not always exact repeats. Equal entries are not always repeated.

Columns and labels:
[1] = target: T1, human CD3 on the surface of T cells / Jurkat cells (human, UniProt P07766 23-207; P09693 23-182; P04234 22-171); experiment: flow cytometry on CD3+ Jurkat cells
T1 construct: whole, on cells
Text: (§1) Cells were washed five times with flow buffer and stained with anti-human IgG lambda antibody conjugated to FITC (Southern Biotech 2070-02). Cells were stained with 7-AAD (7-AAD Viability Staining Solution, Biolegend 420404) followed by flow cytometry analysis.

[2] = target: T2, human FLT3 (Fms Related Receptor Tyrosine Kinase 3) expressed on cells (human, UniProt P36888 27-993); experiment: flow cytometry on FLT3+ MV4-11 cells
T2 construct: whole, on cells; Same entry used for all cell lines; also called FLK2
T2 sequence (looked up): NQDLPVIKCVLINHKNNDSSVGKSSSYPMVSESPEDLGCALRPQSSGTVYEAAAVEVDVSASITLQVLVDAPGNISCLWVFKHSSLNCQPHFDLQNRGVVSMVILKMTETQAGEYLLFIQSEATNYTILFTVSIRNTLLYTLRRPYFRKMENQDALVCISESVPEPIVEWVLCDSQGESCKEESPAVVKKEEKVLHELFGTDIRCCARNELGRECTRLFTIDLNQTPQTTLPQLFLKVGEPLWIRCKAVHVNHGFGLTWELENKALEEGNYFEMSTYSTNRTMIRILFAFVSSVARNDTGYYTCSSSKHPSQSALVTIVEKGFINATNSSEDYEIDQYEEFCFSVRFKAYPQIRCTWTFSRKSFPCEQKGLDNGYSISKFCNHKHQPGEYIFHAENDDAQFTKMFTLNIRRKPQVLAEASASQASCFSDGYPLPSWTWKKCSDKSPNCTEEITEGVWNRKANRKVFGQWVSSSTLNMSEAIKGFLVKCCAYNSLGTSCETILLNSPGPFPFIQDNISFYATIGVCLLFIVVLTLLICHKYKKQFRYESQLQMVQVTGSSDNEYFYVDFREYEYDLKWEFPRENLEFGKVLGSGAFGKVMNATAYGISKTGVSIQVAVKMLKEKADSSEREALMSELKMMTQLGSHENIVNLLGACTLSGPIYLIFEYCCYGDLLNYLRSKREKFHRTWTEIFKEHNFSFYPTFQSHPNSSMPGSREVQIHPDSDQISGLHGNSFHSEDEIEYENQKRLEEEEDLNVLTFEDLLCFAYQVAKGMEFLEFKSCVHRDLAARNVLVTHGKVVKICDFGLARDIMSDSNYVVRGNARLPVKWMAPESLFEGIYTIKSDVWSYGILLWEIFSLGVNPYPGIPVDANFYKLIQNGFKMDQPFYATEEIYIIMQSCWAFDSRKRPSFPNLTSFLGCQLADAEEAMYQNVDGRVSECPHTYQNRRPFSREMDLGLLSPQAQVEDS
Text: as §1, with “analysis. […] Binding of bispecific antibody to cells should directly correlate with FLT3 expression.” for “analysis.”

[3] = target: T2, human FLT3 (Fms Related Receptor …); experiment: cell-based or functional assay
[4] = target: T1, human CD3 on the surface of T cells / …; experiment: flow cytometry on CD3+ primary T cells
Text: as §1

[5] = target: T2, human FLT3 (Fms Related Receptor …); experiment: flow cytometry on FLT3+ OCI-AML cells
Text: as §1, with “analysis. […] Binding of bispecific antibody to cells should directly correlate with FLT3 expression.” for “analysis.”

[6] = target: T3, Recombinant Human CD3 epsilon Fc Chimera Protein (R&D, no. 9850-CD-050) (human, UniProt P07766 23-126); experiment: ELISA, plate coated with recombinant human CD3 epsilon Fc chimera
T3 construct: Bought reagent; Fc part of the bought chimera not given
Method: The plate was washed with wash buffer (PBS (Caisson Labs, no. PBL06)+0.05% Tween20 (ThermoFisher, no. 28320)) The plate was blocked with blocking buffer (PBS (Caisson Labs, no. PBL06)+1% (w/v) BSA (Rockland, no. BSA-50)+0.05% Tween20 (ThermoFisher, no 28320)) for two hours at room temperature (RT). Plate was washed twice with wash buffer. […] Plate was washed 4× with wash buffer. Plate was incubated with 100 μL per well of 1:200 goat anti-human lambda-HRP secondary antibody (SouthernBiotech, no. 2070-05) for one hour at RT. Plate was washed 4× with wash buffer. Plate was incubated with 100 μL per well of TMB Substrate (ThermoFisher Cat #34029) for 20 minutes protected from light. Stop solution (2N H₂SO₄) was added to each well. Absorbance of wells was recorded at 450 nm on an Envision plate reader (PerkinElmer). […] Variable slope (four parameters) curve was fit to the data and EC50 was used to compare binding affinities.

[7] = target: T2, human FLT3 (Fms Related Receptor …); experiment: flow cytometry on FLT3+ THP-1 cells
Text: as §1, with “analysis. […] Binding of bispecific antibody to cells should directly correlate with FLT3 expression.” for “analysis.”

[8] = target: T2, human FLT3 (Fms Related Receptor …); experiment: flow cytometry on FLT3+ HL-60 cells
Text: as §1, with “analysis. […] Binding of bispecific antibody to cells should directly correlate with FLT3 expression.” for “analysis.”

[9] = target: T2, human FLT3 (Fms Related Receptor …); experiment: flow cytometry on FLT3+ NOMO-1 cells
Text: as §1, with “analysis. […] Binding of bispecific antibody to cells should directly correlate with FLT3 expression.” for “analysis.”

[10] = target: T2, human FLT3 (Fms Related Receptor …); experiment: flow cytometry on FLT3+ MOLM-13 cells
Text: as §1, with “analysis. […] Binding of bispecific antibody to cells should directly correlate with FLT3 expression.” for “analysis.”

[11] = target: T1, human CD3 on the surface of T cells / …; experiment: flow cytometry on CD3+ human T cells
Text: as §1

[12] = target: T2, human FLT3 (Fms Related Receptor …); experiment: flow cytometry on FLT3+ REH cells
Text: as §1

T1 sequence (P07766 23-207, chain 1 of 3): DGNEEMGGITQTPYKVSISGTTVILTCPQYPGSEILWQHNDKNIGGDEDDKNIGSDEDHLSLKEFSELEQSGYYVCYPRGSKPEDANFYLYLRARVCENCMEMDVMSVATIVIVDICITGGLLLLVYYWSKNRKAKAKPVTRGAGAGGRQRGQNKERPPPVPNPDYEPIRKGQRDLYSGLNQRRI
T1 sequence (P09693 23-182, chain 2 of 3): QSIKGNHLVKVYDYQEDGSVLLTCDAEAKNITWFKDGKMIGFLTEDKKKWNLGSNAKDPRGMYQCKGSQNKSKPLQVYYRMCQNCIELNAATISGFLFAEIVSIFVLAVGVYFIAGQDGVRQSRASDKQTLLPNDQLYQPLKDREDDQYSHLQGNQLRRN
T1 sequence (P04234 22-171, chain 3 of 3): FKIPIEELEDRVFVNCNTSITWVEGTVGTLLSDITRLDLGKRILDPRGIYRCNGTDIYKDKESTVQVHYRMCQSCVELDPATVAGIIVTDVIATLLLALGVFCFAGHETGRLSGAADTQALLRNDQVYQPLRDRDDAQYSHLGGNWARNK
T3 sequence (P07766 23-126, change not shown): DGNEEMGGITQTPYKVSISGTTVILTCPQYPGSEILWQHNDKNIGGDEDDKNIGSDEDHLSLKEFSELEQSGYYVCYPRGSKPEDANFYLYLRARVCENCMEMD

EC50 [1]: 4.18 nM
EC50 [2]: 6.33 nM
EC50 [4]: 14.2 nM
EC50 [5]: 1.86 nM
EC50 [6]: 0.011 µg/mL and 0.06 nM
EC50 [7]: 5.74 nM
EC50 [8]: 1.02 nM
EC50 [9]: 6.75 nM
EC50 [10]: 0.4 nM
EC50 [11]: 13.8 nM
EC50 [12]: 0.5 nM and 0.87 nM and 0.6 nM
B1: CD3xFLT3 bispecific antibody 118BA #3 (bispecific antibody, human IgG1, lambda)
heavy: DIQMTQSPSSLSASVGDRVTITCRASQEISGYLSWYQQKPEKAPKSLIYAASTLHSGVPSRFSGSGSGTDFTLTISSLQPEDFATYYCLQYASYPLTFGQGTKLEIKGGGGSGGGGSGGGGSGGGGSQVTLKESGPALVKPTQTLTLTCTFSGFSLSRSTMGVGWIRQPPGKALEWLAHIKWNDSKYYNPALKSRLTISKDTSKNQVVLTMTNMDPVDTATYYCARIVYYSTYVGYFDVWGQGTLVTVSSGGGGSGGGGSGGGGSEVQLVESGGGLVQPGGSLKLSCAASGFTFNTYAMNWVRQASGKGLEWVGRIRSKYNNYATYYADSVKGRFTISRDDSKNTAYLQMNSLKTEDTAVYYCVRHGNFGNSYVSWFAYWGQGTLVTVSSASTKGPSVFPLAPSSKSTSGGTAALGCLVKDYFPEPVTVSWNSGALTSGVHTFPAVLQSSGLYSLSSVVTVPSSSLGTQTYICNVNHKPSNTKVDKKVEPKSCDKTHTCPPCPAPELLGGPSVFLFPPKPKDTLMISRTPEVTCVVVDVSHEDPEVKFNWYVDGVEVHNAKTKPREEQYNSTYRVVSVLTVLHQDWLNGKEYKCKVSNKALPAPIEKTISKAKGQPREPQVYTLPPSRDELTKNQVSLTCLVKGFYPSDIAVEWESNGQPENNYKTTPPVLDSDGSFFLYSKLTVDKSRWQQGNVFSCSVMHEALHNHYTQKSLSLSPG
light: QAVVTQEPSFSVSPGGTVTLTCGSSTGAVTTSNYANWVQQTPGQAFRGLIGGTNKRSSGVPDRFSGSLLGDKAALTITGAQADDESDYYCALWYSNLWVFGGGTKLTVLGGQPKAAPSVTLFPPSSEELQANKATLVCLISDFYPGAVTVAWKADSSPVKAGVETTTPSKQSNNKYAASSYLSLTPEQWKSHRSYSCQVTHEGSTVEKTVAPTECS
notes: also called #3 WT
EC50 of cytotoxicity against HL-60 [3]: 0.014 nM
EC50 of cytotoxicity against MOLM-13 [3]: 0.0157 nM
EC50 of cytotoxicity against MV4-11 [3]: 0.022 nM
EC50 of cytotoxicity against NOMO-1 [3]: 3 pM
EC50 of cytotoxicity against OCI-AML [3]: 2 pM
EC50 of cytotoxicity against REH [3]: 0.01 nM
EC50 of cytotoxicity against REH cells [3]: 10 pM and 6 pM
EC50 of cytotoxicity against THP-1 [3]: 0.25 pM
